According to PMC9219861:

Target: ULK1 (UniProt O75385)
Experiment: FLAG co-IP, ULK1 blot
Conditions: reference: Flag-CHK2 WT, EBSS; sites T68

binding against the reference: weaker
Substance: CHK2 (from UniProt O96017) Flag-CHK2 T68A, EBSS
